Molecular target: T1, Bruno-EGFP (BrunoFL-EGFP) (UniProt O02374)
T1 sequence: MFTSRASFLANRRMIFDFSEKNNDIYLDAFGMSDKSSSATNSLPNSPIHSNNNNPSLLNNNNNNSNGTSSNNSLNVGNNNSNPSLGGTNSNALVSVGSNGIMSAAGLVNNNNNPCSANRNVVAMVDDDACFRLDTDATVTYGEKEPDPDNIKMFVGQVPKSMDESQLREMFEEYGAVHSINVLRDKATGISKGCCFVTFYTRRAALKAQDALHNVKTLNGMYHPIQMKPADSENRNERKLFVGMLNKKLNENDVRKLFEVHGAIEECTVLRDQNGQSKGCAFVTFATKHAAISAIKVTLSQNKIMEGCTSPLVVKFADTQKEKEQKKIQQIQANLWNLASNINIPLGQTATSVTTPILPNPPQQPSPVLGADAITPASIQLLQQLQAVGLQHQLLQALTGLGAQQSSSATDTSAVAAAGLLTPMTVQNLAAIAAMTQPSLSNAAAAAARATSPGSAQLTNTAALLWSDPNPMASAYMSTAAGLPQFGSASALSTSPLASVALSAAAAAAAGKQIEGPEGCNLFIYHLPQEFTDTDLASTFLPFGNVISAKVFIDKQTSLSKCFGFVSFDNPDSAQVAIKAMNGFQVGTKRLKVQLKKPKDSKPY
Test: EMSA
Details: EMSA: 50 nM RNA, 20 mM Tris-HCl pH 7.5, 150 mM NaCl, 2 mM MgCl2, 5% glycerol, 0.5 mM TCEP, 20 min at room temperature; 0.8% agarose 0.5x TBE gel at 4 C

GGGUGGAAAAUUCGCUUGCACAAAAUCAACGCCGCGGCUGAUUUAUUAUUGAUGUGCUCAAGCAAAUUCA [WTOES (WT67)]
binding: no binding

GGGUGGAAAAUUCGCUUGCACAAAAUCAACGUUGCGGCUGAUUUAUUAUUGAUGUGCUCAAGCAAAUUCA [UUOES (UU67)]
binding: no binding

GGGAGUGAAGCAUUUGCGCGAUUUUCGUCUUUCUGUUUCCGUUUGCAAAAAAGUUUAUAAAAUGCUUACACUCUGCUGCAGACACGCCAACCGGAAGUGCGCACUAAGCGCUUGUUUGUAGCACAGUGUAGAAUUCUGGCGUAAUUUACAGCUCUACUUUAAAGUCUUCUAGAUAGCUAUCUACUAUUUAUAAACUUAUUUAUUGUCUUGAAUGUAUGUUAAUUGUAUGUAUUGAUGGUGAUCACGUUUUUUUUGUCCUAUAACAAGCUGCAAUGUAAAAUCCAAAAAAAAAAUG [oskar292]
binding: binds

From article PMC11567897
